What was measured:
[1] = test system: BeWo choriocarcinoma cells; assay: Cellular internalization by fluorescence microscopy, BeWo cells; format: cell-based; settings: 1 h exposure, imaged 24 h
Method: (§1) FIG. 18 includes images showing the cellular internalization of SynB1-ELP delivered NOX peptide. Rhodamine-labeled SynB1-ELP-NOX was exposed to cells for 1 h, cells were washed, fresh media was returned, and images were collected 24 h after initial exposure.
(§2) It is confirmed that the SynB1-ELP-NOX polypeptide was internalized by cells. Both endothelial cells (HUVECs) and chorionic cells (BeWo choriocarcinoma cells) were exposed to fluorescently labeled SynB1-ELP-NOX for 1 h. The cells were then washed and given fresh media for 24 h.

[2] = test system: placental chorionic villous explants; assay: ROS production in placental chorionic villous explants, dihydroethidium (DHE) assay; format: cell-based, rat; settings: 20 or 50 μM, 1% O2, 48 h
Method: FIG. 19 includes a graph showing inhibition of reactive oxygen species production of placental villous explants. Villous explants were dissected from rat placentas at day 19 of gestation. Explants were grown ex vivo on a bed of Matrigel in cell culture medium. 24 h after equilibration of explants, media was replaced with media plus SynB1-ELP or SynB1-ELP-NOX, and explants were incubated at 37° C. in a 6% or 1% O2 environment for 48 h. ROS was detected by incubation with 5 μM dihydroethdium for 1 hour, and fluorescence was measured using a florescence plate reader. The assay was performed in triplicate, and data represent the mean±s.e. of three independent experiments each performed with 4 explants per treatment group. *p<0.01, one way ANOVA with post-hoc Bonferonni multiple comparison.
Chorionic villous explants were cut on GD19 and cultured ex vivo on Matrigel coated wells with complete cell culture medium. After equilibration, culture medium was replaced with medium containing SynB1-ELP-NOX or the SynB1-ELP control polypeptides at 20 or 50 μM, and explants were incubated at 6% O2 (representing a healthy placenta) or 1% O2 (representing a preeclamptic placenta). After 48 h exposure to hypoxia, detection of ROS was performed using the dihydroethidium (DHE) assay.

[3] = test system: endothelial cells (HUVECs); assay: Cellular internalization by fluorescence microscopy, HUVECs; format: cell-based, human; settings: 1 h exposure, imaged 24 h
Method: as §1, §2

B1: SynB1-ELP-NOX: SynB1 peptide fused to the N-terminus of ELP (SEQ ID NO: 4), NOX peptide at the C-terminus; SEQ ID NO: 16 (protein)
chain: MRGGRLSYSRRRFSTSTGRGCGPGVGVPGAGVPGGGVPGAGVPGGGVPGAGVPGGGVPGAGVPGGGVPGAGVPGGGVPGAGVPGGGVPGAGVPGGGVPGAGVPGVGVPGAGVPGGGVPGAGVPGGGVPGAGVPGGGVPGAGVPGGGVPGAGVPGGGVPGAGVPGGGVPGAGVPGGGVPGAGVPGVGVPGAGVPGGGVPGAGVPGGGVPGAGVPGGGVPGAGVPGGGVPGAGVPGGGVPGAGVPGGGVPGAGVPGGGVPGAGVPGVGVPGAGVPGGGVPGAGVPGGGVPGAGVPGGGVPGAGVPGGGVPGAGVPGGGVPGAGVPGGGVPGAGVPGGGVPGAGVPGVGVPGAGVPGGGVPGAGVPGGGVPGAGVPGGGVPGAGVPGGGVPGAGVPGGGVPGAGVPGGGVPGAGVPGGGVPGAGVPGVGVPGAGVPGGGVPGAGVPGGGVPGAGVPGGGVPGAGVPGGGVPGAGVPGGGVPGAGVPGGGVPGAGVPGGGVPGAGVPGVGVPGAGVPGGGVPGAGVPGGGVPGAGVPGGGVPGAGVPGGGVPGAGVPGGGVPGAGVPGGGVPGAGVPGGGVPGAGVPGVGVPGAGVPGGGVPGAGVPGGGVPGAGVPGGGVPGAGVPGGGVPGAGVPGGGVPGAGVPGGGVPGAGVPGGGVPGAGVPGVGVPGAGVPGGGVPGAGVPGGGVPGAGVPGGGVPGAGVPGGGVPGAGVPGGGVPGAGVPGGGVPGAGVPGGGVPGAGVPGVGVPGAGVPGGGVPGAGVPGGGVPGAGVPGGGVPGAGVPGGGVPGAGVPGGGVPGAGVPGGGVPGAGVPGGGVPGAGVPGWPGSGGCSTRIRRQL
modifications: synthetic SynB1-ELP-NOX sequence
internalization in BeWo cells [1]: detectable in a punctate cytoplasmic distribution in both cell lines
ROS production of hypoxic explants [2]: inhibited this ROS production
internalization in HUVECs [3]: detectable in a punctate cytoplasmic distribution in both cell lines

Source: patent US10081667B2, “Composition and method for therapeutic agent delivery during pregnancy” (University of Mississippi Medical Center, priority 2013, dated 2018)
